Measurements from patent publication US20250333506A1 (NEW YORK UNIVERSITY, published 2025).
Positions count from the first letter of the chain named. Read-outs that look alike come from different tables or passages of the source. Values belong to the binder of their own block, whether it stands above or below them.

Assays:
[1] = biological target: T1, cynomolgus Gamma/Delta1A TCR-Fc fusion protein (cynomolgus monkey, biotinylated in vitro with recombinant BirA (AviTag)); assay: bead binding assay (TCR-Fc on streptavidin beads, IgG titrated, flow cytometry); apparent KD, s.d. of triplicates
T1 construct: First chain = delta, second = gamma; also called Cyno D1; cyno D1; not shown: Fc portion of mouse IgG, then AviTag and His6 tag at the C-terminus; Fc portion of mouse IgG

Cyno D2 [2] = biological target: T2, Cyno D2 (biotinylated (AviTag)); assay: bead binding assay: biotinylated TCR-Fc on streptavidin beads, IgG titrated, flow cytometry
T2 construct: also called cynomolgus Gamma/Delta2; Cyno D2/G
T2 delta chain: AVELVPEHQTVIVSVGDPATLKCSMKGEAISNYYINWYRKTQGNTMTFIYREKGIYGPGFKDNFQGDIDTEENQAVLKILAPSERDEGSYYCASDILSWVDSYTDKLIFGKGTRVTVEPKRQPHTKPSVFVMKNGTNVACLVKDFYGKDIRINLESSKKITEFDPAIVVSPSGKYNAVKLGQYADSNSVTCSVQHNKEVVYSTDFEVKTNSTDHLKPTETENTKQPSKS
T2 gamma chain: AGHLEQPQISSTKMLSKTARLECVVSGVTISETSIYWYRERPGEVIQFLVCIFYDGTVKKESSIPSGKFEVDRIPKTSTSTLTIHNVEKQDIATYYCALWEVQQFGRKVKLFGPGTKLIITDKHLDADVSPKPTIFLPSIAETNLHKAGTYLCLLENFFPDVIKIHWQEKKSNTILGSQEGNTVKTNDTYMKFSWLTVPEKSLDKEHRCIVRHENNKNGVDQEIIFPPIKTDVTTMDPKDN

[3] = biological target: T1, cynomolgus Gamma/Delta1A TCR-Fc fusion …; assay: as above
Human D1A/G3 = biological target: T3, Human D1A/G3 (biotinylated (AviTag)); assay: as above
T3 construct: also called human Delta1A / Gamma3 TCR-Fc fusion protein
T3 sequence (delta chain, as listed by the source, chain 1 of 2): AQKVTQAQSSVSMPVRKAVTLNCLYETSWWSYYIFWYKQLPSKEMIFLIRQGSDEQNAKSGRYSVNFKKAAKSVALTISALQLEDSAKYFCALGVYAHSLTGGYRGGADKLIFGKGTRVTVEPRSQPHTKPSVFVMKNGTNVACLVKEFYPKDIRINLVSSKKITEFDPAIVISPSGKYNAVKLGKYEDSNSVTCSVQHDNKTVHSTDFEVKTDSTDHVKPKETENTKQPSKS
T3 sequence (gamma chain, as listed by the source, chain 2 of 2): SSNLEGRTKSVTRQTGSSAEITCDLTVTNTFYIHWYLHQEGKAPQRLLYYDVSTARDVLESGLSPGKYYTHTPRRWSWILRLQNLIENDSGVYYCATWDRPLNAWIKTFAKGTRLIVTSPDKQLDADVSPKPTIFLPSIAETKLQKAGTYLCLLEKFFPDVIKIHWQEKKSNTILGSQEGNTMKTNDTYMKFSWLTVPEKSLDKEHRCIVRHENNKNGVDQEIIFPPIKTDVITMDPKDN

Human D1A/G8 = biological target: T4, Human D1A/G8 (biotinylated (AviTag)); assay: as above
T4 construct: may be the same protein as m34; also called human Delta1A / Gamma8 TCR-Fc fusion protein
T4 sequence (delta chain, as listed by the source, chain 1 of 2): as the sequence (delta chain, as listed by the source, chain 1 of 2) above
T4 sequence (gamma chain, as listed by the source, chain 2 of 2): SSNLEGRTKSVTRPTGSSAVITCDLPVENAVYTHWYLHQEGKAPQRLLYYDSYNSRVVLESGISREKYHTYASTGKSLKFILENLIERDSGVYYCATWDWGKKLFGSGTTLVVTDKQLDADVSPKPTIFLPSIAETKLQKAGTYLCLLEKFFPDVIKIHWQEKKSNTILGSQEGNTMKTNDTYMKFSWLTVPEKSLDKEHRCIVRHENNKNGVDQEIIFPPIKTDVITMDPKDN

Cyno D2 [4] = biological target: T2, Cyno D2; assay: as above
Cyno D2 [5] = biological target: T2, Cyno D2; assay: as above
[6] = biological target: T5, human Delta1 TCR (Fc fusion protein, Delta1 clone and gamma chain not stated); assay: bead binding titration, flow cytometry (MFI against antibody concentration)
T5 construct: also called Human Delta1 Fc fusion protein; human delta-1 chain

[7] = biological target: T1, cynomolgus Gamma/Delta1A TCR-Fc fusion …; assay: bead binding assay (TCR-Fc on streptavidin beads, IgG titrated, flow cytometry); apparent KD
[8] = biological target: T6, cynomolgus monkey Delta1 Fc fusion protein (Delta1 clone not stated); assay: bead binding assay: Fc fusion proteins on streptavidin-coated beads, IgG titrated, flow cytometry
T6 construct: also called monkey (cyno) delta-1 chain; monkey Delta1 receptors

[9] = biological target: T5, human Delta1 TCR (Fc fusion protein, …); assay: as above
[10] = biological target: T1, cynomolgus Gamma/Delta1A TCR-Fc fusion …; assay: bead binding assay: biotinylated TCR-Fc on streptavidin beads, IgG titrated, flow cytometry; remark: listed apart in the source
Cyno D2 [11] = biological target: T2, Cyno D2; assay: as above
Cyno D2 [12] = biological target: T2, Cyno D2; assay: as above
Cyno D2 [13] = biological target: T2, Cyno D2; assay: as above
[14] = biological target: T1, cynomolgus Gamma/Delta1A TCR-Fc fusion …; assay: as above; remark: listed apart in the source
[15] = biological target: T1, cynomolgus Gamma/Delta1A TCR-Fc fusion …; assay: as above; remark: listed apart in the source
[16] = biological target: T1, cynomolgus Gamma/Delta1A TCR-Fc fusion …; assay: as above; remark: listed apart in the source
Cyno D2 [17] = biological target: T2, Cyno D2; assay: as above
Cyno D2 [18] = biological target: T2, Cyno D2; assay: as above
[19] = biological target: T1, cynomolgus Gamma/Delta1A TCR-Fc fusion …; assay: as above; remark: listed apart in the source
Cyno D2 [20] = biological target: T2, Cyno D2; assay: as above
[21] = biological target: T1, cynomolgus Gamma/Delta1A TCR-Fc fusion …; assay: as above; remark: listed apart in the source
Cyno D2 [22] = biological target: T2, Cyno D2; assay: as above
Cyno D2 [23] = biological target: T2, Cyno D2; assay: as above
[24] = biological target: T5, human Delta1 TCR (Fc fusion protein, …); assay: SPR: biotinylated TCR on a neutravidin-loaded Avicap chip, IgG flowed (OneStep, Pioneer instrument)

Kd [1]: 1.3 nM | binding result (Cyno D2 [2]): no binding (tested: 100 nM) | EC50 (read off the curve) [3]: ~5 nM | binding result (Human D1A/G3): binds | binding result (Human D1A/G8): binds
B1: Delta1-23 (antibody, V domains shown)
VH: EVQLVESGGGLVQPGGSLRLSCAASGFTVSSSSIHWVRQAPGKGLEWVASIYSSSGYTYYADSVKGRFTISADTSKNTAYLQMNSLRAEDTAVYYCARDPGSYYWYYSGSAYEGYGLDYWGQGTLVTVSS
VL: DIQMTQSPSSLSASVGDRVTITCRASQSVSSAVAWYQQKPGKAPKLLIYAASSLQSGVPSRFSGSRSGTDFTLTISSLQPEDFATYYCQQQSKYPFLITFGQGTKVEIKR
notes: Tested in the human IgG format; also called anti-Delta1-23

binding result (Cyno D2 [4]): no binding (tested: 100 nM)
B2: Delta1-30 (antibody, V domains shown)
VH: B1 VH
VL: DIQMTQSPSSLSASVGDRVTITCRASQSVSSAVAWYQQKPGKAPKLLIYSASSLYSGVPSRFSGSRSGTDFTLTISSLQPEDFATYYCQQSGDDLITFGQGTKVEIKR

binding result (Cyno D2 [5]): no binding (tested: 100 nM) | Kd [1]: 0.61 nM
B3: Delta1-22 (antibody, V domains shown)
VH: B1 VH
VL: B1 VL with Q91R, K93R, P95Y, F96S
notes: Tested in the human IgG format

EC50 (read off the curve) [6]: ~1 nM | Kd [7]: 2.7 nM | EC50 (read off the curve) [8]: ~2 nM | EC50 (read off the curve) [9]: 2 to 3 nM
B4: Delta1-41 (antibody, V domains shown)
VH: B1 VH with V29F, S31A, S32N, S33D
VL: B1 VL
notes: Tested in the human IgG format; also called anti-Delta1-41

EC50 (read off the curve) [10]: ~2 nM
B5: Delta1-40 (antibody, V domains shown)
VH: B1 VH with V29F, S30T
VL: B1 VL
notes: also called anti-Delta1-40

binding result (Cyno D2 [11]): no binding (tested: 100 nM) | Kd [1]: 1.74 nM
B6: Delta1-21 (antibody, V domains shown)
VH: B1 VH
VL: B1 VL with S92Q, K93R, Y94T, P95S, F96Y
notes: as for B3

binding result (Cyno D2 [12]): no binding (tested: 100 nM) | Kd [7]: 0.34 nM
B7: Delta1-20 (antibody, V domains shown)
VH: B1 VH
VL: B1 VL with Q91Y, S92C, K93R, Y94K, P95S, F96S, I98F
notes: as for B3

binding result (Cyno D2 [13]): no binding (tested: 100 nM) | Kd [7]: 30.4 nM
B8: Delta1-29 (antibody, V domains shown)
VH: B1 VH
VL: B2 VL with S50A, Y55Q
notes: as for B3

EC50 (read off the curve) [14]: ~2 nM
B9: Delta1-37 (antibody, V domains shown)
VH: B1 VH with V29F, S30T, S31G
VL: B1 VL
notes: also called anti-Delta1-37

EC50 (read off the curve) [15]: ~3 nM
B10: Delta1-38 (antibody, V domains shown)
VH: B1 VH with V29F, S30T, S33D
VL: B1 VL
notes: also called anti-Delta1-38

EC50 (read off the curve) [16]: ~3 nM
B11: Delta1-36 (antibody, V domains shown)
VH: B1 VH with V29F, S32N, S33D
VL: B1 VL
notes: also called anti-Delta1-36

binding result (Cyno D2 [17]): binds | Kd [1]: 0.25 nM
B12: Delta1-19 (antibody, V domains shown)
VH: B1 VH
VL: B1 VL with Q91M, S92D, K93R, Y94F, P95Y, F96S
notes: as for B3

Kd [1]: 0.36 nM | binding result (Cyno D2 [18]): no binding (tested: 100 nM)
B13: Delta1-28 (antibody, V domains shown)
VH: B1 VH
VL: B1 VL with Q91W, S92M, K93R, Y94S, P95S, F96S, I98F
notes: as for B3

EC50 (read off the curve) [19]: ~2 nM
B14: Delta1-33 (antibody, V domains shown)
VH: B1 VH with V29F
VL: B1 VL
notes: also called anti-Delta1-33

Kd [7]: 0.78 nM | binding result (Cyno D2 [20]): no binding (tested: 100 nM)
B15: Delta1-27 (antibody, V domains shown)
VH: B1 VH
VL: B1 VL with Q91S, K93R, Y94N, P95S, F96K
notes: as for B3

EC50 (read off the curve) [21]: ~3 nM
B16: Delta1-34 (antibody, V domains shown)
VH: B1 VH with V29F, S31G, S32T, S33D
VL: B1 VL
notes: also called anti-Delta1-34

binding result (Cyno D2 [22]): no binding (tested: 100 nM) | Kd [7]: 0.15 nM
B17: Delta1-18 (antibody, V domains shown)
VH: B1 VH
VL: B1 VL with Q91R, K93R, Y94V, P95Y, F96S, I98V
notes: as for B3

binding result (Cyno D2 [23]): no binding (tested: 100 nM) | EC50 (read off the curve) [6]: ~0.5 nM | Kd [24]: 4.6 nM | Kd [7]: 13.7 nM
B18: Delta1-17 (antibody, V domains shown)
VH: B1 VH with S102M
VL: B2 VL
notes: also called anti-Delta1-17; Delta-17
